Test: soluble on expression in E. coli; label from the status in PepcDB or PDB records

Sequence | soluble on expression in E. coli
SNTGPYYFVKNLPLHELITPEFISTFIKKGKLILSLDKDTYEETGLQGHPSQFSGRKIMKFIVSIDLMELSLNLDSKKYERISWSFKEKKPLKFDFLLAWHKTGSEESTMMSYFSKYQIQEHQPKVALSTLRDLQCPVLQSSELEGTPEVSCRALELFDWLGAVFSNVDLNNEPNNFISTYCCPEPSTVVAKAYLCTITGFILPEKICLLLEHLCHYFDEPKLAPWVTLSVQGFADSPVSWEKK | soluble
MGSDKIHHHHHHMSIRGKAFIVGAYEHPGRNLPDHSVQQIHAECAMGALSDAGLSIKDVDGYFSNGQLGFGGISMAEYLGLRLSYIDSTFTGGSSYMAHVGHAAAAIAAGKCKVALITQGAKVRGVIRGAKHTADTPEFPFETVYGETNAAIYALAARRHMHEYGTTAEQLAAVKVAAAAYAQHNPNALLRKLVSIDDVMNSPIIADPLHRLDCCVVTDGGGALVLVAPEIARSLKRQSVKLLGHAEAIRHGGDGPSDFASTAAALSGPRAFTEAGVSPRDVRYASIYDSFTITVIMTLEDLGFCGKGEGGAFVASGALGLDGLLPINTDGGGLCNNHPGYQGGMVRTIEAVRQLRGEANPNTQVKNCTIALAHGTGGGMSRHASVTLVLGQEDA | not soluble
MGSDKIHHHHHHVAISIAGGVRPGKVIEIERRLYKQLIVGKHKANAMPDELSAELEESANKLDIERKALKMRLEKQAKEKSVYVEVSALLTHTVNNAIEHQLAHPQMILEASAISENQILLLDLLLHPDLNINRLRPIIESINWLSRDLINLINSPASRHRRPKHGDVQVTDIKLVLNYIGIEHLRLLIPYFCLRNWLPSGNANLLWITRKLWRYSMVSAIAAQTLAELHNEEPGLAYSCALMYQFSTSIILSQSGRIFDNTWGTWLREASHSREKQVYDAIMATDFPAEEVLGQVLLHSHRLNWQLLSLLKFDDSPITQVLKELDHDYHFTELSADAAIVAKASCYAKVLLLEEQQQIDPQEKRIMFDYYQFSAQELIRLKGQNFRKLDLL | not soluble
MGSDKIHHHHHHMSTARLVLLGGFLGAGKTTTMIKSALKLEKEGYRVAIVTNDQGKELIDTELARANGLESKEVTGGCFCCQFDDLYNNLNTLMKEKQPDVIIAEAVGSCTDLAATVIQPLKQYYADKFKTAPLTIVVEPARLLHELNLDENTKPFFSQSVSYIFEKQLAEADIIALNKVDRYSEEEIAKLKAYLQQRYPQTIIQTFSAERGDNLEALTHTWLTTDLGGDKVLDIDYELYAEGEAQLAWMNILGDIKAEQDINPREWAEKLLDNLNKHFIREKMAIAHLKVHVGFEGGYVKASMVQTGDAPTFTVENVKEGKEFRIVLNIRIEATPAILNLVVADSIGAINKELGSNWSETYNECFSPLPPKPVHRLYETV | not soluble
MYRTPAAIVADATVGIPLVRFVTEEMEMTPELVALYTSHRSVWELLEGELKSLGLNPKVVYGTDVYKTRKSLQEVRPRVVFGSTIERHASEGLPVAYVVEVVRMMRQFRMINREYFGYTGILNLLECVQNEWVMGWRSKELEHHHHHH | not soluble
MGSDKIHHHHHHMKVCILGATGRVGSNIIKLALKDSVEVTALARDSSRVEINHERLRVIEGNVLNENDIKKAIEGSDIVISALGTDQNGTLAKSMPQIIKKMEEEGVRKIITIGTAGILQARTNLNLYRFQSTESKRKSTTAAEEHLAAYKILSSSNLCWTVVCPTHLIDGDVTGIYRTEKDVLPEGGAKITVGDTAQFTWNLCSKNKYENSRVGISY | not soluble
MAGPSLVEVAAAVLIRPDDSFLLACRPDGKPYAGYWEFPGGKIETGESPLQALARELDEELGITVRQATPWLTRTFSYPHATVRLRFYRVTDWHGELTPRERQQFAWQTAENITVSPLLPANTPILRSLALPSIYAVTRTVETDIEASLLSIGQTLGNGVKLLQIRQKAMSHDQLEHFSRTALQLARSYQATVLINENIPLAQTLQADGVHLTAAQLRSLHSRPAVNWCGASCHNEQELQRAERLGVDFVTLSPVQPTLSHPGAAALGWKEFAALIRDYPLPVYALGGLLPADLETAREYGAHGIAMMRSILEHHHHHH | not soluble
MSLDAELVDWELAVTTAKKLVRPGPQRSRAEADEIVSELRRLAVVAEGHVQDYTQLVPAGPPTPIAVVDRPEWVRSNVAGLRVATMPLIEKLSDQSRGRLAAAVGRRVTGVQVGSALAYLAGKVLGQFEVFLPPEEYEAGSAASAPSLAKPGAPTPVGRLSLVAPNIAHAEETLRVVPRDFRLWVCLHEQTHRSQFTAVPWLREHLESEIAAFIGATDLDPDVLADRLRSAVTALRSAVRDHGPDTPSVVEALQTPAQRAVLDRLQALMSLLEGHADQVMDAVGPQVVPTVADIRGKFDNRRSGGSPIDRFLRRLLGLDLKMQQYRQGGAFVRAVVAEVGVEGFNHVWQSPRTLPTRPELTDPGAWMLRVLGTREGHHHHHH | soluble
MSYLDTATDLPNQTLFLEYLNIALSNARRHHAQVGVLLCQINNWSDLKRKRGDAVANAFLQEAGQKLKSNLRNGDIVSRWDKDEFIFLVSKVQDTSSLLGIAQRLMKPVLAPVTAGGRPFQPEITYGVALYPVDGEQVNDLIGHIRENLQQLLPQPTLEHHHHHH | not soluble
MISKDEILEIFDKYNKDEITIATLGSHTSLHILKGAKLEGFSTVCITMKGRDVPYKRFKVADKFIYVDNFSDIKNEEIQEKLRELNSIVVPHGSFIAYCGLDNVENSFLVPMFGNRRILRWESERSLEGKLLREAGLRVPKKYESPEDIDGTVIVKFPGARGGRGYFIASSTEEFYKKAEDLKKRGILTDEDIANAHIEEYVVGTNFCIHYFYSPLKDEVELLGMDKRYESNIDGLVRIPAKDQLEMNINPSYVITGNIPVVIRESLLPQVFEMGDKLVAKAKELVPPGMIGPFCLQSLCNENLELVVFEMSARVDGGTNSFMNGGPYSFLYNGEPLSMGQRIAREIKMALQLDMIDKIIS | soluble
MGSDKIHHHHHHMSAKKNEIRSKLALLQLATELGSISKACGIMGYSRDSYYRFKKQYETAGERGLKNLSRRKPALKNRVSQAVEDQVIEIALDYPNYGQAKVAELLTARGCAISASGVRTIWVRHNLETKKNRLLALHSKLKQDNNLAPSDQVRIEKLYQLDSNDPIFECLYPGDICVQDTFDLGVISPLGQLYQHTFVDGYSQFAIAVIMPERDSASAAEFLEQTVLPWYATAQGLNINTILTDRGSEFFGKKSQQFSDVLSAHNINHIQMRAYNGPVVNGLAARFQDLAYHEFYEPFLKENKAGSLLDLNQQLANWLYDYNHSHAISGRYTLGKTAAEVLKLTKHLSEASSQCS | not soluble
MSDEQIDKLVSRLDGALNRLGNVKKDHPLESSSNSKPTHQPKSPAPYRQKIEKLSAEVVDSNPYSRLMALQRMGIVNEYERIREKTVAVVGVGGVGSVVAEMLTRCGIGKLILFDYDKVEIANMNRLFYQPNQAGLSKVEAARDTLIHVNPDVQIEVHNFNITTMDNFDTFVNRIRKGSLTDGKIDLVLSCVDNFEARMAVNMACNEENQIWMESGVSENAVSGHIQYIEPGKTACFACVPPLVVASGIDERTLKRDGVCAASLPTTMAVVAGFLVMNTLKYLLNFGEVSQYVGYNALSDFFPRDSIKPNPYCDDSHCLQRQKEYEEKVANQPVDLEVEVPEEETVVHEDNEWGIELVNESEPSAEQSSSLNAGTGLKFAYEPIKRDAQTELSPAQAATHDFMKSIKDKLVEEAQNKGK | not soluble
GMDKQAILDNIHQTWQEEANAISRLPEVTSEEALVKTVEKIAECTGKIVVAGCGTSGVAAKKLVHSFNCIERPAVFLTPSDAVHGTLGVLQKEDILILISKGGNTGELLNLIPACKTKGSTLIGVTENPDSVIAKEADIFFPVSVSKEPDPFNMLATASTMAVIASFDAVIVCLMTYMNYTKEQFSVIHPGGAVGNKLLNK | soluble
MIKINISQNFLVAKGHALFAEKGKDIVCAAISGIIFGGVAWFEPDKIEFTENKLVPSIALKLIDPTPNVAVAFSVITVQLKAIANSYPNHIVINEESYE | soluble
MASNEKTRYKAIIADHTYTIIGQESKQHMDLVTKIVNEQLAEIKHLSPQTDTEQASVLLAINAISDQLKKQEYALKLEKQVADLKQKTIRLAELENRVRRMEIIEEEARDVLKKNGQEDVEIHNHVEAQQILNENRKQQIQNKGVSE | not soluble
MSLIDWTRPLADRMRPRLLTEFVGQSHLLDAGKPLREVIEAGRPHSMVFWGPPGTGKTTLARLIAEATEAEFLALSAVMAGVKEIRQASATGQANRARGRQTILFVDEVHRFNKAQQDAFLPFIEDGTVVFIGATTENPSFELNNALLSRLRTYVLRPLGEAALARIIDCALEDSERGLGTKQLALSEQARSLLIQAADGDARSALSLLEVAADLSAAEARIDIDLIRAAAAGGRARFDKRGEAFYDEISALHKAVRGSAPDAALYWLCRMLAGGCDPLYLARRLLRMASEDIGNADPRGLQVALNAWQAQERLGSPEGELAIAQAVVYLASVPKSDAVYRAYRLAAEDVRSHGSLEVPLALRNAPTRLLRELGYGRGYRYAHDEPEGYAAGAEYFPAELIGTRYYHPADRGLERQIGERLRRLRELDRATEGHHHHHH | not soluble
MTSDGATSTSAAAAAAAAAAARRKPSWRERENNRRRERRRRAVAAKIYTGLRAQGDYNLPKHCDNNEVLKALCVEAGWVVEEDGTTYRKPLPGEIAGTSSRVTPYSSQNQSPLSSAFQSPIPSYQVSPSSSSFPSPSRGEPNNNMSSTFFPFLRNGGIPSSLPSLRISNSCPVTPPVSSPTSKNPKPLPNWESIAKQSMAIAKQSMASFNYPFYAVSAPASPTHRHQFHTPATIPECDESDSSTVDSGHWISFQKFAQQQPFSASMVPTSPTFNLVKPAPQQMSPNTAAFQEIGQSSEFKFENSQVKPWEGERIHDVGMEDLELTLGNGKARG | soluble
MIATLLSSLLLTGPISAGAETQGLLPAQDLLPDIGTSAGATLSIDQEMAMGDFYVRQMRASAPLIYDPLLTQYINTLGNRLVANANSVRTPFHFYLVNNDQINAFAFFGGNVVLHSALFRYTDNESELASVLAHEISHVTQRHLARAMEEQQRLAPLTWVGVLGSILLTMASPQAGMAGLSGTLAGAQQGIISFTQGNEQEADRIGIQVLQRSGFDPQAMPNFLQKLADQSRYVSKPPEMLLTHPLPDSRLSDARNRANQMKPHPTASSQDYLFAKMRILGMYGADENSLTPELLDKLSKGTVREQLAAKYGQAVQLYQAKKYDEARNLLQPLLAQQPGNIWFLDLMTDIDLGQNKSAAAIARLQNAMVKQNDEPVLQLNLANAYVQGRQPAAAIKLLHRYTFAYPNDPNGWDLLAQATATQGLRDQELAARAESLALSGKLTQAIGLLSDASARVKLGSLEQARYDARIDQLRRLNERFRKYQKS | not soluble
MTVKCKAEESLTCSCVDVGTIIDGSDCSVEVHQFYSTEADANAVLERLTKKARNTESDPCEIKSEIVAVENGVQLNASFTFSCQAEAMIFELANR | not soluble
MTVSDHPQTVSQPDPESESRPSKTRLKQEMHALQALGERLVELEPARIAELDLPEKLAEALLEARKITSHGARRRHLQFIGKLMRAVDPLPVQEKLDAWQHTGMRHTAWLHQLERWRDRLISDETAVTEFVQTYPHTDVRQLRTLLRNIEKEKLAGKPPHNFRALFQLLRQIIPEIPG | not soluble
MRRVGESSTGDRKALRSGLKRQGSADEDDIESIFSGIGSARINEPKAKKDDDESNEEKYFSVGKDGRRYHEGLPVYTTEELHLGDGGGDTEDCPIYCDCCL | not soluble
GSHMKFTRVCDRRDVPEGEALKVESGGTSVAIFNVDGELFATQDRCTHGDWSLSDGGYLEGDVVECSLHMGKFCVRTGKVKSPPPCEALKIFPIRIEDNDVLVDFEAGYLAP | soluble
MFIAGYIEKPERGKDIILTEKGRISNEKFFPTLEEKRLIDQYWKNKSELRKARKKANSIIDDSTSTKAVEIDENSGDSDWKTELIDQLKKFSPGKFESFSRLLISKMGVRIDNQRGIIRSGDHSIDGFGYFQSDEFRTSRVAIQAKRFTNGSVGEPEIDKFKGVMDSFNAEYGIFITTSYFTDQAKEKAVVGNNSVTLIDGIKLASLVQKYQLRV | not soluble

Reference: the DeepSol protein solubility set
